Assay results published in US20140134180A1 (E R SQUIBB AND SONS L L C, published 2014).

Experiments:
[1] = biological target: T1, Penta-B7H4 ( for this construct); test: ELISA: anti-mouse Fc coat, monoclonal anti-C9 (0.6 ug/ml), Penta-B7H4 titrated 4000 to 2.0 ng/ml, human antibody at 1 ug/ml; the value is a concentration of Penta-B7H4, not of antibody [panel B]
T1 construct: also called Penta-O8E; Penta-B7H4-C9
Description: An ELISA plate was coated with anti-mouse Fc, followed by monoclonal anti-C9 (0.6 ug/ml), then titrated Penta-B7H4 as indicated, then the human antibodies at 1 ug/ml.

[2] = biological target: T2, human O8E, full length, on cells (human, UniProt Q7Z7D3 25-282); test: titration of labelled antibody on O8E-transfected cells, sigmoidal dose response fit; bottom and top fixed for incomplete curve; qualitative ranking
T2 construct: also called B7H4; B7S1
T2 sequence: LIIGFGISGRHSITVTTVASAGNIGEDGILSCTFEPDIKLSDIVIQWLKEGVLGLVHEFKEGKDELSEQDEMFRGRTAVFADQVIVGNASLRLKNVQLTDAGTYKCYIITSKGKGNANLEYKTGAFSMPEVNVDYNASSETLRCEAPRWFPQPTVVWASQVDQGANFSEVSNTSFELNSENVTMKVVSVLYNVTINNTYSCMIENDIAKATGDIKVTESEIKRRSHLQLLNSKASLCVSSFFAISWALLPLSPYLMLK
Description: (§1) HEK cells were transfected with full length O8E using standard techniques and grown in RPMI media containing 10% fetal bovine serum (FBS). […] Millipore plates (MAFB NOB) were coated with 1% nonfat dry milk in water and stored a 4° C. overnight. The plates were washed three times with 0.2 ml of binding buffer. Fifty microliters of buffer alone was added to the maximum binding wells (total binding). Twenty-five microliters of buffer alone was added to the control wells (non-specific binding). Varying concentration of ¹²⁵I-anti-O8E antibody was added to all wells in a volume of 25 μl. (In some cases FITC labeled antibodies were used for the titration since unlabeled material was not available, binding may be compromised in these instances.) Varying concentrations of unlabeled antibody at 100 fold excess was added in a volume of 25 μl to control wells and 25 μl of O8E transfected CHO cells (2×10⁶ cells/ml) in binding buffer were added to all wells. The plates were incubated for 2 hours at 200 RPM on a shaker at 4° C. At the completion of the incubation the Millipore plates were washed three times with 0.2 ml of cold wash buffer (24 mM Tris pH 7.2, 500 mM NaCl, 2.7 mM KCl, 2 mM Glucose, 1 mM CaCl₂, 1 mM MgCl₂, 0.1% BSA.). The filters were removed and counted in a gamma counter. […]

[3] = biological target: T2, human O8E, full length, on cells; test: titration of labelled antibody on O8E-transfected cells, sigmoidal dose response fit; FITC-labelled antibody; qualitative ranking
Description: as §1

[4] = biological target: T2, human O8E, full length, on cells; test: titration of labelled antibody on O8E-transfected cells, sigmoidal dose response fit; qualitative ranking
Description: as §1

B1: 2A7 human monoclonal antibody (antibody, V domains shown)
VH: EVQLVESGGGLIQPGGSLRLSCAASGFTVSSNYMNWVRQAPGKGLEWVSVIYGSGRTYYADSVKGRVTISRDNSKNTLYLQMNSLRAEDTAVYYCARDTYAMDVWGQGTTVTVSS
VL: not shown
notes: Human IgG from a hybridoma of mice carrying a human kappa transgene; Fitcylated for immunohistochemistry; also called 2A7.C11; 2A7/C11
With B1 the “EC50 (read off the curve)” value [1] was roughly 0.04 µg/mL.

B2: 12E1 human monoclonal antibody (antibody, V domains shown)
VH: EVQLVESGGGLVQPGRSLRLSCVASGFTFDDYAMHWVRQAPGKGLEWVSGISWNSGSIGYADSVKGRFTISRDNAKNSLYLQMNSLRAEDTALYYCTKALYGSGSSDFYYYGMDVWGQGTTVAVSS
VL: EIVLTQSPATLSLSPGERATLSCRASQSVSSYLAWYQQKPGQAPRLLIYDASNRATGIPARFSGSGSGTDFTLTISSLEPEDFAVYYCQQRRTFGQGTKVEIK
notes: Human IgG from a hybridoma of mice carrying a human kappa transgene; also called 12E1.G9
For B2, the EC50 [2] was roughly 19.8 nM and the “EC50 (read off the curve)” value [1] was roughly 0.05 µg/mL.

B3: 1G11 human monoclonal antibody (antibody, V domains shown)
VH: QVQLQQWGAGLLKPSETLSLTCAVYGGSFSDYFWTWIRQPPGKGLEWIGEINHSGTTNYNPSLKSRVTISADTSKNQFSLRLSSVTAADTAVYYCARLSSWSNWAFEYWGQGTLVTVSS
VL: EIVLTQFPGTLSLSPGERATLSCRASQSVSSTYLAWYQQKPGQAPRVLIYGASRRATGIPDRFSGSGSGTDFTLTISRLEPEDFAVYYCQQYGSSPLTFGGGTKVEIK
notes: Human IgG from a hybridoma of mice carrying a human kappa transgene; also called 1G11.H11-FITC; 1G11.H1
B3 gave an EC50 [3] of 1.69 nM.

B4: 13D12 human monoclonal antibody (antibody, V domains shown)
VH: QVQLQQWGAGLLKPSETLSLTCAVYGGSFSGYYWSWIRQPPGKGLEWIGKINHSGSTNYNPSLKSRVTISVDTSKNQFSLKLNSVTAADTAVYYCARELRYFENYYYGMDVWGQGTTVTVSS
VL: not shown
notes: Human IgG from a hybridoma of mice carrying a human kappa transgene; also called 13D12.G10
In the case of B4, the EC50 [4] is reported as 0.746 nM.
